Data published in article doi:10.1101/498196 (bioRxiv, 2018).
Positions count from the first letter of the chain named. Names and notes keep the numbering of the source.

Legend:
crystal structure = target: the molecule itself; assay: crystal structure
AUC = target: the molecule itself; assay: AUC
bead aggregation assay = target: the molecule itself; assay: bead aggregation assay

B1: hs PCDH1 EC1-4bc (domain or fragment)
chain: TRVVYKVPEEQPPNTLIGSLAADYGFPDVGHLYKLEVGAPYLRVDGKTGDIFTTETSIDREGLRECQNQLPGDPCILEFEVSITDLVQNGSPRLLEGQIEVQDINDNTPNFASPVITLAIPENTNIGSLFPIPLASDRDAGPNGVASYELQAGPEAQELFGLQVAEDQEEKQPQLIVMGNLDRERWDSYDLTIKVQDGGSPPRASSALLRVTVLDTNDNAPKFERPSYEAELSENSPIGHSVIQVKANDSDQGANAEIEYTFHQAPEVVRRLLRLDRNTGLITVQGPVDREDLSTLRFSVLAKDRGTNPKSARAQVVVTVKDMNDNAPTIEIRGIGLVTHQDGMANISEDVAEETAVALVQVSDRDEGENAAVTCVVAGDVPFQLRQASETGSDSKKKYFLQTTTPLDYEKVKDYTIEIVAVDSGNPPLSSTNSLKVQVVDVNDNA
Crystal structure
  binding result: binds

B2: PCDH1 EC1-4 C375S (domain or fragment)
chain: B1 chain with C375S
AUC
  Kd: < 5 µM
  stoichiometry N: 2

B3: hs PCDH1 EC1-4mc (domain or fragment)
chain: B1 chain
modifications: sugars observed at N248 (N-linked) and S430 (O-linked)
Crystal structure
  binding result: binds

B4: PCDH1 EC1-4Fc (Fc fusion)
chain: B1 chain
Bead aggregation assay
  binding result: binds

B5: PCDH1 EC1-7Fc (Fc fusion)
chain: TRVVYKVPEEQPPNTLIGSLAADYGFPDVGHLYKLEVGAPYLRVDGKTGDIFTTETSIDREGLRECQNQLPGDPCILEFEVSITDLVQNGSPRLLEGQIEVQDINDNTPNFASPVITLAIPENTNIGSLFPIPLASDRDAGPNGVASYELQAGPEAQELFGLQVAEDQEEKQPQLIVMGNLDRERWDSYDLTIKVQDGGSPPRASSALLRVTVLDTNDNAPKFERPSYEAELSENSPIGHSVIQVKANDSDQGANAEIEYTFHQAPEVVRRLLRLDRNTGLITVQGPVDREDLSTLRFSVLAKDRGTNPKSARAQVVVTVKDMNDNAPTIEIRGIGLVTHQDGMANISEDVAEETAVALVQVSDRDEGENAAVTCVVAGDVPFQLRQASETGSDSKKKYFLQTTTPLDYEKVKDYTIEIVAVDSGNPPLSSTNSLKVQVVDVNDNAPVFTQSVTEVAFPENNKPGEVIAEITASDADSGSNAELVYSLEPEPAAKGLFTISPETGEIQVKTSLDREQRESYELKVVAADRGSPSLQGTATVLVNVLDCNDNDPKFMLSGYNFSVMENMPALSPVGMVTVIDGDKGENAQVQLSVEQDNGDFVIQNGTGTILSSLSFDREQQSTYTFQLKAVDGGVPPRSAYVGVTINVLDENDNAPYITAPSNTSHKLLTPQTRLGETVSQVAAEDFDSGVNAELIYSIAGGNPYGLFQIGSHSGAITLEKEIERRHHGLHRLVVKVSDRGKPPRYGTALVHLYVNETLANRTLLETLLGHSLDTPLDIDIAGDPEYERSKQRGN
Bead aggregation assay
  binding result: binds

B6: PCDH1 EC1-7Fc C375S C548S (Fc fusion)
chain: B5 chain with C375S, C548S
Bead aggregation assay
  binding result: binds

B7: PCDH1 EC1-7Fc V115R (Fc fusion)
chain: B5 chain with V115R
Bead aggregation assay
  binding result: binds

B8: PCDH1 EC1-5 C375S C548S (domain or fragment)
chain: TRVVYKVPEEQPPNTLIGSLAADYGFPDVGHLYKLEVGAPYLRVDGKTGDIFTTETSIDREGLRECQNQLPGDPCILEFEVSITDLVQNGSPRLLEGQIEVQDINDNTPNFASPVITLAIPENTNIGSLFPIPLASDRDAGPNGVASYELQAGPEAQELFGLQVAEDQEEKQPQLIVMGNLDRERWDSYDLTIKVQDGGSPPRASSALLRVTVLDTNDNAPKFERPSYEAELSENSPIGHSVIQVKANDSDQGANAEIEYTFHQAPEVVRRLLRLDRNTGLITVQGPVDREDLSTLRFSVLAKDRGTNPKSARAQVVVTVKDMNDNAPTIEIRGIGLVTHQDGMANISEDVAEETAVALVQVSDRDEGENAAVTSVVAGDVPFQLRQASETGSDSKKKYFLQTTTPLDYEKVKDYTIEIVAVDSGNPPLSSTNSLKVQVVDVNDNAPVFTQSVTEVAFPENNKPGEVIAEITASDADSGSNAELVYSLEPEPAAKGLFTISPETGEIQVKTSLDREQRESYELKVVAADRGSPSLQGTATVLVNVLDSNDND
AUC
  Kd: < 5 µM
  stoichiometry N: 2

B9: PCDH1 EC1-5 C375S C548S V115R (domain or fragment)
chain: B8 chain with V115R
AUC
  stoichiometry N: 2
